One assay concerns the target BSA (UniProt P02769 25-607). Description: ELISA, 100 ng target on plate, detected with anti-scytovirin rabbit polyclonal.
In another assay the target is T1, sCD4 (UniProt P01730 26-394).
T1 construct: Printed only as sCD4 (soluble CD4)
The assay is described as above.

In a further assay the target is T2, human serum albumin (human, UniProt P02768 25-609).
T2 construct: also called HSA; HAS
The assay is described as above.

Assay [1] addresses T3, glycosylated gp120 (HIV-1SF2 gp120) (HIV-1 SF2, UniProt P03378 32-509, limits assumed, glycosylated).
T3 construct: domain: gp120
Put plainly: ELISA, glycosylated and nonglycosylated HIV-1SF2 gp120 on plate, serial dilutions of scytovirin.

T2 sequence (P02768 25-609 limits assumed): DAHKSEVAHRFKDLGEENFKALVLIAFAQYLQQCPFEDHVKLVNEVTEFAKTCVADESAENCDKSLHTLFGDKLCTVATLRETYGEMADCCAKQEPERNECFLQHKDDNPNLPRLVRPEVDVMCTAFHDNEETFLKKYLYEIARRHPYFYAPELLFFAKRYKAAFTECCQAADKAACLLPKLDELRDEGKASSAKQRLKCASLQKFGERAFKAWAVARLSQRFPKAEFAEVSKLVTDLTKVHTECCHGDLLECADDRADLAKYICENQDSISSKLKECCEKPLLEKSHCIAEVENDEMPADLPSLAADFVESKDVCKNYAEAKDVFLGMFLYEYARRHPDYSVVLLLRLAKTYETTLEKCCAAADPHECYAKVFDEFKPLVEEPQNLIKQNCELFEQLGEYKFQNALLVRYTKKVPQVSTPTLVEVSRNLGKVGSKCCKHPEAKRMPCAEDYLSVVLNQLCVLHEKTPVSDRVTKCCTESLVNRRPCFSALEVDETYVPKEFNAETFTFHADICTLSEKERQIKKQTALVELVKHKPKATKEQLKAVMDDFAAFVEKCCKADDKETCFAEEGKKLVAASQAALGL
BSA, sequence (P02769 25-607 limits assumed): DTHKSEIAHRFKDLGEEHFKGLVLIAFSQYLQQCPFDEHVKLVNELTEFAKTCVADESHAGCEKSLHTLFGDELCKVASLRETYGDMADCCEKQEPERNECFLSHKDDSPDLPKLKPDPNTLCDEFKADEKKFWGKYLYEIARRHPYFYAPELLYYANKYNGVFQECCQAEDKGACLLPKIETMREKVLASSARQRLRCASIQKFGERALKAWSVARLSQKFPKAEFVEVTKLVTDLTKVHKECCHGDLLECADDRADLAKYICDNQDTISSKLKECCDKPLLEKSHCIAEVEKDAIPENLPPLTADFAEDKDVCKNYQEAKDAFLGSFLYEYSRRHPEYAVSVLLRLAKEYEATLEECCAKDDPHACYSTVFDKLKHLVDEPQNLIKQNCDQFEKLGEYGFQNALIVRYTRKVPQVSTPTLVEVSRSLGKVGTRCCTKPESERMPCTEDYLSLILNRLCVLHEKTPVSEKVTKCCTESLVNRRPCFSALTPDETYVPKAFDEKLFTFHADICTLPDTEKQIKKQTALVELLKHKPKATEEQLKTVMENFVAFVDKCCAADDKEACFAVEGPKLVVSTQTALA

B1: scytovirin (other)
chain: GSGPTYCWNEANNPGGPNRCSNNKQCDGARTCSSSGFCQGTSRKPDPGPKGPTYCWDEAKNPGGPNRCSNSKQCDGARTCSSSGFCQGTAGHAAA
notes: Natural protein purified from an aqueous extract of cultured Scytonema varium; It has 95 residues, weighs 9,713 Da and has five intrachain disulfides (Cys20-Cys26, Cys32-Cys38, Cys68-Cys74, Cys80-Cys86, Cys7-Cys55); also called wild-type scytovirin; natural scytovirin
Take B1: the binding result is reported as “no binding (tested: 100 ng of scytovirin)” with BSA, “no binding (tested: 100 ng of scytovirin)” with sCD4, “no binding (tested: 100 ng of scytovirin)” with human serum albumin and “binds” in assay [1].

The values above are taken from patent publication US20050084496A1 (GOVERNMENT OF THE UNITED STATES OF AMERICA REP BY THE SECR …, published 2005).
